Data on five molecules can be found in PMC9482650, “Quantitative fragmentomics allow affinity mapping of interactomes” (Nature Communications, 2022).

Some targets named below: FRMPD2_2, Q68DX3; FRMPD2_3, Q68DX3; GRASP, Q7Z6J2; GRID2IP_2, A4D2P6; Inadl_6, Q8NI35; LAP2, Q96RT1; LNX1_2, Q8TBB1; MAGI1_2, Q96QZ7; PICK1, Q9NRD5; SNX27, Q96L92.
Experiment in all cases: holdup assay
What all share (design): key: below the threshold = too weak to quantify, mostly under pKd 3.1 to 4
Conditions in all cases: plain residues with an end cap or a label only (N-terminal biotin on a linker: ado-ado)

A further experiment has as its target T1, APBA1_1, Q02410.
T1 sequence (Q02410 651-752, limits assumed, looked up): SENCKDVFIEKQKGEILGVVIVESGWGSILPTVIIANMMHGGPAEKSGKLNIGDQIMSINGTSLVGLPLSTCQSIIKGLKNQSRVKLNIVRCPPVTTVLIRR

In another experiment the target is T2, ARHGEF11, O15085.
T2 sequence (O15085 42-136, limits assumed, looked up): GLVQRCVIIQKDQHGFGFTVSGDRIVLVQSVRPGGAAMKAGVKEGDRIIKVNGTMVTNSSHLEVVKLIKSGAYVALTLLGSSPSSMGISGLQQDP

The next experiment has as its target T3, DLG3_2, Q92796.
T3 sequence (Q92796 221-321, limits assumed, looked up): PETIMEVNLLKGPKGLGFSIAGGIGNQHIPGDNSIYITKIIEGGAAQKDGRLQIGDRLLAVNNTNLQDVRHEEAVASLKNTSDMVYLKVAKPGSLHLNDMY

The target of a further experiment is T4, DVL3, Q92997.
T4 sequence (Q92997 244-331, limits assumed, looked up): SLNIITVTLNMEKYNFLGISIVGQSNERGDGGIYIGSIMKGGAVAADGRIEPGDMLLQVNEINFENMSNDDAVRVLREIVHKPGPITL

The target in the next experiment is T5, GRIP1_4, Q9Y3R0.
T5 sequence (Q9Y3R0 467-571, limits assumed, looked up): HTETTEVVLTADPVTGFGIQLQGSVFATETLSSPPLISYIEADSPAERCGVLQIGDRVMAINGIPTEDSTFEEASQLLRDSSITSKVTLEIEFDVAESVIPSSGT

The next experiment addresses T6, LIN7B, Q9HAP6.
T6 sequence (Q9HAP6 88-185, limits assumed, looked up): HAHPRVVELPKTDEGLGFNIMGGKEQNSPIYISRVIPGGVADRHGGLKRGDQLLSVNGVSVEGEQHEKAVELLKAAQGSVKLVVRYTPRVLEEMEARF

Another experiment deals with T7, LIN7C, Q9NUP9.
T7 sequence (Q9NUP9 88-185, limits assumed, looked up): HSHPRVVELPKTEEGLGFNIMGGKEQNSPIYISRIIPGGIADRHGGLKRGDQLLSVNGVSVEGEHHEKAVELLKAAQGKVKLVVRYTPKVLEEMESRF

A further experiment addresses T8, MPDZ_10, O75970.
T8 sequence (O75970 1624-1722, limits assumed, looked up): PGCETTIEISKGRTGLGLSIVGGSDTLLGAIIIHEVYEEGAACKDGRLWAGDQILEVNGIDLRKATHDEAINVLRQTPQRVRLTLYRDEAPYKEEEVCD

A further experiment has as its target T9, MPDZ_5, O75970.
T9 sequence (O75970 695-796, limits assumed, looked up): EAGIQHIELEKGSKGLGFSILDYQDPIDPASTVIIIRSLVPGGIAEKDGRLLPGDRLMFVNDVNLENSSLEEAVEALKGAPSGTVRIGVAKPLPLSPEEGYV

For another experiment, the target named is T10, PDZD2_2, O15018.
T10 sequence (O15018 329-429, limits assumed, looked up): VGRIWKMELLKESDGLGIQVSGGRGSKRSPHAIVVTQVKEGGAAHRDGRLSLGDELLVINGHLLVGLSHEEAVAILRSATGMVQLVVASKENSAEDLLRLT

Another experiment addresses T11, SNTB1, Q13884.
T11 sequence (Q13884 107-205, limits assumed, looked up): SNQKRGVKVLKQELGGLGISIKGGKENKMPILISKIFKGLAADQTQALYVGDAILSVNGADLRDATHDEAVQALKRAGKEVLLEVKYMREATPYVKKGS

The next experiment has as its target T12, TIAM2, Q8IVF5.
T12 sequence (Q8IVF5 885-986, limits assumed, looked up): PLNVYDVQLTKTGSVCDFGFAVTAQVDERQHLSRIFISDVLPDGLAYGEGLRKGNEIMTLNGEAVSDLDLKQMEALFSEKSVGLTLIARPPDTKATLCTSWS

A further experiment deals with T13, TX1BP3, O14907.
T13 sequence (O14907 10-122, limits assumed, looked up): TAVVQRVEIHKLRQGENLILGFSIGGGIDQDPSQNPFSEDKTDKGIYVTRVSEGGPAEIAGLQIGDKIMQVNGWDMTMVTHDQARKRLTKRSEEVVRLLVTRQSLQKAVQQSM

Sequence of PICK1, Q9NRD5 (Q9NRD5 17-115): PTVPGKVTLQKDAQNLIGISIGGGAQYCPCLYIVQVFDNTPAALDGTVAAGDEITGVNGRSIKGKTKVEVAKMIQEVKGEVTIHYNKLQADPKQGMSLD
Sequence of LNX1_2, Q8TBB1 (Q8TBB1 371-470): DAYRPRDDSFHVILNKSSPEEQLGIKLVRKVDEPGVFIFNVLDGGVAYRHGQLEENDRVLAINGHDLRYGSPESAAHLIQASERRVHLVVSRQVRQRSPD
Sequence of GRID2IP_2, A4D2P6 (A4D2P6 272-370): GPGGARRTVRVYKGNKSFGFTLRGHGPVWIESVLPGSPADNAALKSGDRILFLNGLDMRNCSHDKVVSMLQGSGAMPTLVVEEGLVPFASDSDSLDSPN
Sequence of FRMPD2_2, Q68DX3 (Q68DX3 944-1038): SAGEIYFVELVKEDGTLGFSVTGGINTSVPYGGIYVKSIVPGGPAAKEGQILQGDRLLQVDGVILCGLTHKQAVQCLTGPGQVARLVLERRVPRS
Sequence of MAGI1_2, Q96QZ7 (Q96QZ7 456-580): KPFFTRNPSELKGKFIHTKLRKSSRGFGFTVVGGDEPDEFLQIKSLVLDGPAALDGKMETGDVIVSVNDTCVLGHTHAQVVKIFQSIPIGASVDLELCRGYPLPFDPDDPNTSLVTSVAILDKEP
Sequence of FRMPD2_3, Q68DX3 (Q68DX3 1073-1166): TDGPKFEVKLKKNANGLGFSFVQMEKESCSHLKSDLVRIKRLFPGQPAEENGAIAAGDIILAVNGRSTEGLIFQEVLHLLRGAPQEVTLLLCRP
Sequence of Inadl_6, Q8NI35 (Q8NI35 1058-1167): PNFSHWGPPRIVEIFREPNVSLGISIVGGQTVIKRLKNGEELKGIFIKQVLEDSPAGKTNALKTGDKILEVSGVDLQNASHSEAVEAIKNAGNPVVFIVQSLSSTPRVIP
Sequence of GRASP, Q7Z6J2 (Q7Z6J2 96-193): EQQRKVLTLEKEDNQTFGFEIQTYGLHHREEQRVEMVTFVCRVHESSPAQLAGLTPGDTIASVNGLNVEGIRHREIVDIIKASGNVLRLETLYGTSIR
Sequence of LAP2, Q96RT1 (Q96RT1 other isoform, or with tags, fused parts or gaps): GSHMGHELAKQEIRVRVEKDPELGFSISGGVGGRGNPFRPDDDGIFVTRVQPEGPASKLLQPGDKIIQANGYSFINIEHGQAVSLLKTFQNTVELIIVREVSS

B1: CLDN20, P56880 (peptide)
chain: NSTHNLKDYV
Usually pKd stands for the negative decadic logarithm of the Kd, by convention in mol/L. Regarding B1, the pKd result with APBA1_1, Q02410 is on record as “below the threshold”; in the experiment with ARHGEF11, O15085, “below the threshold”; in the experiment with DLG3_2, Q92796 it was “below the threshold”; with DVL3, Q92997, “below the threshold”; with FRMPD2_2, Q68DX3, “below the threshold”; with FRMPD2_3, Q68DX3 it was “below the threshold”. Besides, the negative logarithm of the Kd (pKd) in the experiment with GRASP, Q7Z6J2 is 3.47; with GRID2IP_2, A4D2P6, “below the threshold”; in the experiment with GRIP1_4, Q9Y3R0, “below the threshold”; in the experiment with Inadl_6, Q8NI35, “below the threshold”; with LAP2, Q96RT1 it was “below the threshold”; in the experiment with LIN7B, Q9HAP6 it was “below the threshold”. Further, the pKd entry with LIN7C, Q9NUP9 is “below the threshold”; with LNX1_2, Q8TBB1 it was “below the threshold”; with MAGI1_2, Q96QZ7, “below the threshold”; in the experiment with MPDZ_10, O75970, “below the threshold”; with MPDZ_5, O75970, “below the threshold”; with PDZD2_2, O15018, 4.56. The pKd result with PICK1, Q9NRD5 is listed as “below the threshold”; with SNTB1, Q13884, “below the threshold”; with SNX27, Q96L92, “below the threshold”; with TIAM2, Q8IVF5, “below the threshold”; with TX1BP3, O14907, “below the threshold”.

B2: TMEM178A, Q8NBL3 (peptide)
chain: QLKSGRDSTV
Turning to B2, the pKd result with APBA1_1, Q02410 was “below the threshold”; in the experiment with ARHGEF11, O15085 it was 4.11; in the experiment with DLG3_2, Q92796, 4.35; with DVL3, Q92997, “below the threshold”; with FRMPD2_2, Q68DX3 it was “below the threshold”; with FRMPD2_3, Q68DX3, “below the threshold”. Moreover, the negative-log Kd (pKd) with GRASP, Q7Z6J2 was 3.56; in the experiment with GRID2IP_2, A4D2P6 it was 3.54; with GRIP1_4, Q9Y3R0 it was 3.56; with Inadl_6, Q8NI35 it was “below the threshold”; in the experiment with LAP2, Q96RT1, 3.63; with LIN7B, Q9HAP6, “below the threshold”. In addition, the pKd with LIN7C, Q9NUP9 worked out at 4.13; with LNX1_2, Q8TBB1, 3.84; with MAGI1_2, Q96QZ7, 3.49; with MPDZ_10, O75970 it was 3.63; in the experiment with MPDZ_5, O75970 it was 3.56; with PDZD2_2, O15018, 4.32. Besides, the pKd with PICK1, Q9NRD5 was 4.35; in the experiment with SNTB1, Q13884 it was 4.1; in the experiment with SNX27, Q96L92 it was 4.01; in the experiment with TIAM2, Q8IVF5, “below the threshold”; with TX1BP3, O14907 it was 3.91.

B3: SORCS3, Q9UPU3 (peptide)
chain: TKEIPNCTSV
Consider B3, for which the pKd entry in the experiment with APBA1_1, Q02410 is “below the threshold”; in the experiment with ARHGEF11, O15085 it was 4.82; with DLG3_2, Q92796, 4.22; with DVL3, Q92997 it was “below the threshold”; in the experiment with FRMPD2_2, Q68DX3, 4.21; with FRMPD2_3, Q68DX3, “below the threshold”. In addition, the pKd is 4.74 with GRASP, Q7Z6J2; 4.29 in the experiment with GRID2IP_2, A4D2P6; “below the threshold” in the experiment with GRIP1_4, Q9Y3R0; “below the threshold” in the experiment with Inadl_6, Q8NI35; 3.98 with LAP2, Q96RT1; “below the threshold” with LIN7B, Q9HAP6. The negative-log Kd (pKd) entry in the experiment with LIN7C, Q9NUP9 was “below the threshold”; with LNX1_2, Q8TBB1 it was 3.78; in the experiment with MAGI1_2, Q96QZ7, 3.94; with MPDZ_10, O75970, 3.83; with MPDZ_5, O75970 it was “below the threshold”; with PDZD2_2, O15018 it was 4.72. In addition, the pKd was 4.17 with PICK1, Q9NRD5; 4.25 in the experiment with SNTB1, Q13884; 5.16 with SNX27, Q96L92; “below the threshold” with TIAM2, Q8IVF5; 4.47 in the experiment with TX1BP3, O14907.

B4: PRLHR, P49683 (peptide)
chain: GQNMTVSVVI
As to B4, the pKd entry with APBA1_1, Q02410 is “below the threshold”; with ARHGEF11, O15085, 4.94; with DLG3_2, Q92796, 4.31; with DVL3, Q92997 it was “below the threshold”; with FRMPD2_2, Q68DX3, “below the threshold”; with FRMPD2_3, Q68DX3 it was “below the threshold”. The pKd result with GRASP, Q7Z6J2 was “below the threshold”; in the experiment with GRID2IP_2, A4D2P6, “below the threshold”; in the experiment with GRIP1_4, Q9Y3R0, “below the threshold”; in the experiment with Inadl_6, Q8NI35 it was “below the threshold”; in the experiment with LAP2, Q96RT1, “below the threshold”; with LIN7B, Q9HAP6, 3.79. For the same molecule, the pKd result with LIN7C, Q9NUP9 is “below the threshold”; in the experiment with LNX1_2, Q8TBB1, 3.54; with MAGI1_2, Q96QZ7 it was “below the threshold”; in the experiment with MPDZ_10, O75970, “below the threshold”; with MPDZ_5, O75970, “below the threshold”; with PDZD2_2, O15018 it was “below the threshold”. Further, the pKd result with PICK1, Q9NRD5 was “below the threshold”; with SNTB1, Q13884, 4.15; in the experiment with SNX27, Q96L92, 4.34; with TIAM2, Q8IVF5, 4.2; with TX1BP3, O14907 it was “below the threshold”.

B5: TNRC6B, Q9UPQ9 (peptide)
chain: DLLGGGSDSI
For B5, the pKd entry with APBA1_1, Q02410 was “below the threshold”; with ARHGEF11, O15085, 3.65; in the experiment with DLG3_2, Q92796, 3.99; in the experiment with DVL3, Q92997, “below the threshold”; in the experiment with FRMPD2_2, Q68DX3, “below the threshold”; with FRMPD2_3, Q68DX3, 3.51. The pKd result with GRASP, Q7Z6J2 is “below the threshold”; with GRID2IP_2, A4D2P6 it was “below the threshold”; in the experiment with GRIP1_4, Q9Y3R0, “below the threshold”; in the experiment with Inadl_6, Q8NI35 it was “below the threshold”; with LAP2, Q96RT1 it was “below the threshold”; with LIN7B, Q9HAP6, 3.61. Further, the negative logarithm of the Kd (pKd) with LIN7C, Q9NUP9 is 3.48; with LNX1_2, Q8TBB1 it was “below the threshold”; in the experiment with MAGI1_2, Q96QZ7, “below the threshold”; with MPDZ_10, O75970 it was “below the threshold”; with MPDZ_5, O75970, “below the threshold”; with PDZD2_2, O15018 it was 3.68. Besides, the negative logarithm of the Kd (pKd) result was “below the threshold” with PICK1, Q9NRD5; “below the threshold” in the experiment with SNTB1, Q13884; “below the threshold” in the experiment with SNX27, Q96L92; 3.97 with TIAM2, Q8IVF5; “below the threshold” with TX1BP3, O14907.
